Changes are numbered by the printed parent chain. Each block holds one binder with its values, some of them ahead of it.
Assays:
murine HVEM = biological target: T1, murine HVEM (murine, UniProt Q80WM9 39-206, limits assumed); test: ELISA
T1 construct: also called Mouse
T1 sequence (looked up): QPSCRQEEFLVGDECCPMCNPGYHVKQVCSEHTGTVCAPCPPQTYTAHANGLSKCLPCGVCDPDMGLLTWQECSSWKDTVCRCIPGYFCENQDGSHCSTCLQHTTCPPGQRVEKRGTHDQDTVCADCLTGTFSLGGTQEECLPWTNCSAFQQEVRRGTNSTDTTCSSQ

human HVEM = biological target: T2, human HVEM (human, UniProt Q92956 39-202, limits assumed); test: ELISA
T2 sequence (looked up): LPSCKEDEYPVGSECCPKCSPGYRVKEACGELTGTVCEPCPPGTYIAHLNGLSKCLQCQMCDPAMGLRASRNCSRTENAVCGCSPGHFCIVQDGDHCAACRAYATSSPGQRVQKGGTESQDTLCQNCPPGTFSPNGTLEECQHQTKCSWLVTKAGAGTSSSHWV

cynomolgus monkey HVEM = biological target: T3, cynomolgus monkey HVEM (cynomolgus monkey, UniProt A0A2K5W0R1 39-203); test: ELISA
T3 sequence: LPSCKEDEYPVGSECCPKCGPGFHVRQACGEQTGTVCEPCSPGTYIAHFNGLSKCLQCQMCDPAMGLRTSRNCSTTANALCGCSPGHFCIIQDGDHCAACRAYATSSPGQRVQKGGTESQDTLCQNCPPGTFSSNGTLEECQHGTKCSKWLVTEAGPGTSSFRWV

[1] = biological target: T4, Human HEVM recombinant protein (Sino Biological, 10334-H02H) (human, UniProt Q92956 39-202); test: competition ELISA, competitor BTLA-His
T4 construct: construct known only by catalogue number; also called HVEM; human HVEM
T4 sequence (looked up): T2 sequence (looked up)
Procedure: The competitive activity of HVEM antibody to BTLA or LIGHT was evaluated with ELISA-based competitive assay. Briefly Human HEVM recombinant protein (Sino Biological, 10334-H02H, 4 ug/ml, 100 ul/well) was coated to ELISA plate (Thermo Scientific, 469949, 4C overnight). A pre-mixture of HVEM antibody clone with seral dilution and 400 nM BTLA-His (R&D systems, 9235-BT-050) or LIGHT-His (SinoBiological, 10386-H07H) recombinant protein was made and added to the ELISA plate after blocking with 3% BSA (200 ul/well, RT 2 Hr) for 1 Hr at RT. The serial dilutions of HVEM antibody clone involve 7 different concentrations, with a 3-fold dilution performed start from 100 nM for BTLA or 325 nM for LIGHT competitive assay. The concentration was the final concentration. Plate was washed with PBST; diluted HRP-anti-His (Biolegend, 652504, 1:1000) with PBS containing 5% FBS was added 100 ul per well for 1 Hr at RT. TMB substrate (KPL, 52-00-00) 100 ul per well after washing and incubate at room temperature for 15 minutes; then stop the development by adding 100 ul stop solution (KPL, 50-85-06). Plate was read at 450 nm. The IC50 was calculated using GraphPad Prism software (GraphPad Software, Inc. San Diego, CA, USA).

His-tagged human HVEM = biological target: T5, His-tagged human HVEM (human, UniProt Q92956 39-202, limits assumed); test: BLI OctetRed96, mAb captured, 200 nM His-HVEM
T5 construct: Analyte of the BLI assay, 200 nM in PBS; not shown: His tag
T5 sequence (looked up): T2 sequence (looked up)
Procedure: Binding of antibodies to HVEM may also be determined by bio-layer interferometry (BLI) on an OctetRed96@ system (Sartorius). (See http://www.fortebio.com/bli_technology.html for general description of a BLI assay.) For this experiment, murine anti-human HVEM antibodies were captured from culture supernatant using anti-mouse IgG Fc capture and immobilized to dip and read biosensors. Sensors were then dipped into a solution of 200 nM His-tagged human HVEM in phosphate-buffered saline (PBS). Probes were dipped into PBS assay buffer and the dissociation rate (koff) was measured. The association rate (kₒₙ) and affinity (KD) were determined by curve fitting analysis.

B2: Ab_053 (H5S19-20A20A) (antibody, V domains shown)
VH: QVQLKESGPGLVAPSQSLSITCTVSGFSLTSYGVHWVRQPPGKGLEWLGVIWAGGITNYNSALMSRLSISKDNSKSQVFLKMNSLQTDDTAMYYCARDWERDSSGPFVYWGQGTLVTVSA
VL: DIQMTQTTSSLSASLGDRVTISCTASQGISNYLNWYQQKPDGTVKLLIYYTSTLHSGVPSRFSGSGSGTDYSLTISNLEPEDIATYYCQQYFKLPWTFGGGTKLEIK
notes: also called Ab_53
- ELISA signal (murine HVEM): 0.042
- ELISA signal (human HVEM): 2.89
- ELISA signal (cynomolgus monkey HVEM): 2.1
- Kd (His-tagged human HVEM): 103 nM
- koff (His-tagged human HVEM): 0.00439 s⁻¹
- kon (His-tagged human HVEM): 42700 M⁻¹ s⁻¹

B4: Ab_004 (H5S14-24A4A) (antibody, V domains shown)
VH: EVQLQQSGPELVKPGTSVKISCKTSGYTITEYTMHWVKQSHGKSLEWIGGINPNNGGTINNQKFKDKATLTVDMSSSTAYMELRSLTSEDSAVYYCAGSVVDRYWYFDVWGAGTTVTVSS
VL: QIVLTQSPAIMSASPGEKVTISCSASSSVSYMYWYQQKPGSSPKPWIYRTSNLASGVPARFSGSGSGTSYSLTISSMEAEDAATYYCQQYHSYPLTFGAGTKLELK
notes: also called Ab_4
- ELISA signal (murine HVEM): 0.044
- ELISA signal (human HVEM): 2.42
- ELISA signal (cynomolgus monkey HVEM): 0.062
- kon (His-tagged human HVEM): 769 M⁻¹ s⁻¹

B5: Ab_005 (H5S14-4A4A) (antibody, V domains shown)
VH: B4 VH with T16A, I29F, N54Y, D66G
VL: B4 VL
notes: also called Ab_5
- ELISA signal (murine HVEM): 0.048
- ELISA signal (human HVEM): 2.44
- ELISA signal (cynomolgus monkey HVEM): 0.063
- kon (His-tagged human HVEM): 2240 M⁻¹ s⁻¹

Further binders by falling Kd (His-tagged human HVEM), results first:

- ELISA signal (murine HVEM): 0.043
- ELISA signal (human HVEM): 0.147
- ELISA signal (cynomolgus monkey HVEM): 0.079
- Kd (His-tagged human HVEM): 12400 nM
- koff (His-tagged human HVEM): 1.08 s⁻¹
- kon (His-tagged human HVEM): 86600 M⁻¹ s⁻¹
B6: Ab_077 (H5S20-31A16B) (antibody, V domains shown)
VH: EVQLQQSGAELVRSGASVKLSCTTSGFNIKDYYMHWVKQRPEQGLEWIGWIDPENGDTEYAPKFQGKATMTADTSSNTAYLQLSSLTSEDTAVYYCNSRTLGYWGQGTLVTVSA
VL: QIVLTQSPALMSASPGEKVTMTCSASSSVSFIYWYQQKPRSSPKPWIYLTSNLASGVPARFSGSGSGTSYSLTISSMEAEDAATYYCQQWSSNPLTFGAGTKLEL
notes: also called Ab_77

- ELISA signal (murine HVEM): 0.045
- ELISA signal (human HVEM): 3.24
- ELISA signal (cynomolgus monkey HVEM): 0.062
- IC50 [1]: 3.2 nM
- Kd (His-tagged human HVEM): 370 nM
- koff (His-tagged human HVEM): 0.109 s⁻¹
- kon (His-tagged human HVEM): 294000 M⁻¹ s⁻¹
B7: Ab_073 (H5S20-9A9A) (antibody, V domains shown)
VH: EVQLQQSGADLVKPGASVKLSCTASGFNIRDTYMHWVNQRPEQGLEWIGRIDPANGNTKYAPKFQGRATITADTSSNTAYLHLSSLTSEDTAVYYCAGYGNSPWFAYWGQGTLVTVSA
VL: DVLMTQTPLSLPVNLGDQASISCRSSQSIVHSNGNTYLEWYLQKPGQSPKLLIYKVSNRFSGVPDRFSGSGSGTDFTLKISRVEAEDLGVYYCFQGSHVPLTFGAGTKLELK
notes: also called Ab_73

- ELISA signal (murine HVEM): 0.042
- ELISA signal (human HVEM): 2.88
- ELISA signal (cynomolgus monkey HVEM): 2.32
- Kd (His-tagged human HVEM): 90.9 nM
- koff (His-tagged human HVEM): 0.00734 s⁻¹
- kon (His-tagged human HVEM): 80700 M⁻¹ s⁻¹
B3: Ab_052 (H5S19-18A17B) (antibody, V domains shown)
VH: B2 VH with S31I, T57I, T87S, V108A
VL: B2 VL with T24S, T53S, S63R, F92S
notes: also called Ab_52

- ELISA signal (murine HVEM): 0.043
- ELISA signal (human HVEM): 3.16
- ELISA signal (cynomolgus monkey HVEM): 0.064
- IC50 [1]: 1.3 nM
- Kd (His-tagged human HVEM): 2.67 nM
- koff (His-tagged human HVEM): 0.00125 s⁻¹
- kon (His-tagged human HVEM): 469000 M⁻¹ s⁻¹
B1: Ab_058 (H5S19-6A8A) (antibody, V domains shown)
VH: EVQLVESGGGLVKPGGSLKLSCAASGFTFNIYTMSWVRQSPEMRLEWVAEISSGGSHTYYPDTVTGRFTISRDNAKNTLYLEMSSLRSEDTAIYYCARGGSLFDYWGQGTTLTVSS
VL: DVQITQSPSYLAASPGETITINCRTSKNISKYLAWYQEKPGKTNKLLIYSGSTLQSGIPSRFSGSGSGTDFTLTISSLEPEDFVMYHCQQHNEYPWTFGGGTKLEIK
notes: also called Ab_58

From patent publication US20240317871A1 (IMMUNOMIC THERAPEUTICS, published 2024)
